T1: fibrinogen Bβ chain (human) (human, UniProt P02675 31-491, N-linked glycan at N364)
T1 sequence (looked up): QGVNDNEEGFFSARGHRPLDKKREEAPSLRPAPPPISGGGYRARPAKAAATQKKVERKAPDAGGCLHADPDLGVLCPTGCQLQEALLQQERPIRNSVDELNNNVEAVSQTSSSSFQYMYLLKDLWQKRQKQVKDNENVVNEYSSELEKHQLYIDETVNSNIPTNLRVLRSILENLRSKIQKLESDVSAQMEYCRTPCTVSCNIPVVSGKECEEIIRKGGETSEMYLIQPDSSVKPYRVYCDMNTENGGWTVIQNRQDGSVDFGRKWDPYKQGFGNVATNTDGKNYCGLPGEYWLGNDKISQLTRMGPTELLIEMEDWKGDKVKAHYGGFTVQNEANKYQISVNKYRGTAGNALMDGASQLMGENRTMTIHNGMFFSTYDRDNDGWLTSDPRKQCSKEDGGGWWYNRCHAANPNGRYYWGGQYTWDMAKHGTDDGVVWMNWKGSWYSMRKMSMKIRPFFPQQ


Experiments:
[1] = molecular target: AαBβγ half-molecule of human fibrinogen (human) (UniProt P02671); test: SEC
[2] = molecular target: T1, fibrinogen Bβ chain (human); test: SEC

| stoichiometry N [1] | binding result [2] | Molecule |
| --- | --- | --- |
| 2 |  | AαBβγ half-molecule of human fibrinogen (from UniProt P02671-2 20-644; P02675 31-491; P02679-2 27-437) (complex) |
|  | binds | fibrinogen γ chain, γ-A isoform (human) (natural protein, UniProt P02679-2 27-437, looked up, N-linked glycan at N52) YVATRDNCCILDERFGSYCPTTCGIADFLSTYQTKVDKDLQSLEDILHQVENKTSEVKQLIKAIQLTYNPDESSKPNMIDAATLKSRKMLEEIMKYEASILTHDSSIRYLQEIYNSNNQKIVNLKEKVAQLEAQCQEPCKDTVQIHDITGKDCQDIANKGAKQSGLYFIKPLKANQQFLVYCEIDGSGNGWTVFQKRLDGSVDFKKNWIQYKEGFGHLSPTGTTEFWLGNEKIHLISTQSAIPYALRVELEDWNGRTSTADYAMFKVGPEADKYRLTYAYFAGGDAGDAFDGFDFGDDPSDKFFTSHNGMQFSTWDNDNDKFEGNCAEQDGSGWWMNKCHAGHLNGVYYQGGTYSKASTPNGYDNGIIWATWKTRWYSMKKTTMKIIPFNRLTIGEGQQHHLGGAKQAGDV |

— article doi:10.1101/2022.09.05.506423 (bioRxiv, 2022)
